T1: FcγRIIb (human, UniProt P31994 43-217)
T1 construct: extracellular domain; Soluble His-tagged extracellular domain expressed in FreeStyle293 cells; analyte in Biacore; also called FcgRIIb; 2b; not shown: His tag attached to the C terminus
T1 sequence (looked up): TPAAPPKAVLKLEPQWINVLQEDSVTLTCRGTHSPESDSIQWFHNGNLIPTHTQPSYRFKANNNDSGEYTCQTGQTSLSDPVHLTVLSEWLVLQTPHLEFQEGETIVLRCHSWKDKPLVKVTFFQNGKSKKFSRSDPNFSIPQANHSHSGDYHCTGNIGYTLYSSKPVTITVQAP

T2: FcγRIIa R (human, UniProt P12318 34-217)
T2 construct: extracellular domain; Soluble His-tagged extracellular domain expressed in FreeStyle293 cells; analyte in Biacore; also called FcgRIIa R; FcgRIIaR; not shown: His tag attached to the C terminus
T2 sequence (looked up): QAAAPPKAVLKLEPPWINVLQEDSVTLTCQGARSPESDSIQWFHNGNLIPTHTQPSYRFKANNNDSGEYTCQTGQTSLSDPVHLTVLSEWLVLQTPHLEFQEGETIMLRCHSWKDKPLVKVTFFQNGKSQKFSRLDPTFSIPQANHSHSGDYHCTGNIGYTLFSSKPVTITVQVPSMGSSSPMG


Tests used:
FcγRIIb = target: T1, FcγRIIb; experiment: SPR (Biacore), antibody captured via antigen peptide, FcγR as analyte
Protocol: (§1) The heterodimerized antibodies He Abs in which one of the H chains was introduced with an alteration were assayed for their binding activities to each activating FcγR and inhibitory FcγR according to the method described in Example 4. […] The activating FcγRs in FIGS. 26, 27, 28, and 29 are FcγRIa, FcγRIIa (R), FcγRIIa (H), and FcγRIIIa, respectively.
(§2) Analysis of interaction between objective antibody and the FcγR was carried out using Biacore T100 (GE Healthcare). HBS-EP+ (GE Healthcare) was used as the running buffer, and the measurement temperature was set to 25° C. Chips produced by immobilizing the antigen peptide by the amine coupling method to a Series S Sencor Chip CM5 (GE Healthcare), or alternatively, chips produced by allowing preliminarily biotinylated antigen peptides to interact with and immobilize onto a Series S Sensor Chip SA (certified) (GE Healthcare) were used. Antibodies of interest were captured onto an antigen peptide-immobilized chip, and allowed to interact to each FcγR diluted with running buffer. To regenerate and repeatedly use the chip, the antibodies captured on the chip were washed off by reacting 10 mM glycine-HCl, pH 1.5.

FcγRIIa R [1] = target: T2, FcγRIIa R; experiment: as above
Protocol: as §1, §2

FcγRIIa R [2] = target: T2, FcγRIIa R; experiment: ratio of He/Con_2aR to He/Con_2b (binding to FcγRIIb as reference); SPR

Binder	He/Con_2b (IIb binding relative to GpH7-A5/GpH7-B3/GpL16-k0) (FcγRIIb)	He/Con_2aR (IIaR binding relative to GpH7-A5/GpH7-B3/GpL16-k0) (FcγRIIa R [1])	He_2aR/2b (IIaR/IIb) (FcγRIIa R [2])
GpH7-A5/GpH7-B3 variant N325_16H/GpL16-k0 (antibody, human IgG1, kappa, Heterodimerized anti-glypican-3 IgG1 antibody; alteration only in the GpH7-B3 H chain; position in EU numbering; also called He Ab) heavy 1: not shown heavy 2: not shown light: DIVMTQSPLSLPVTPGEPASISCQASESLVHSNRNTYLHWYLQKPGQSPQLLIYKVSNRFSGVPDRFSGSGSGTDFTLKISRVEAEDVGVYYCSQNTHVPPTFGQGTKVEIERTVAAPSVFIFPPSDEQLKSGTASVVCLLNNFYPREAKVQWKVDNALQSGNSQESVTEQDSKDSTYSLSSTLTLSKADYEKHKVYACEVTHQGLSSPVTKSFNRGEC	70.1 % of control (control = 100)	89 % of control (control = 100)	1.27
GpH7-A5/GpH7-B3 variant N325_12R/GpL16-k0 (antibody, human IgG1, kappa, Heterodimerized anti-glypican-3 IgG1 antibody; alteration only in the GpH7-B3 H chain; position in EU numbering; also called He Ab) heavy 1: not shown heavy 2: not shown light: DIVMTQSPLSLPVTPGEPASISCQASESLVHSNRNTYLHWYLQKPGQSPQLLIYKVSNRFSGVPDRFSGSGSGTDFTLKISRVEAEDVGVYYCSQNTHVPPTFGQGTKVEIERTVAAPSVFIFPPSDEQLKSGTASVVCLLNNFYPREAKVQWKVDNALQSGNSQESVTEQDSKDSTYSLSSTLTLSKADYEKHKVYACEVTHQGLSSPVTKSFNRGEC	19.1 % of control (control = 100)	26.1 % of control (control = 100)	1.37
GpH7-A5/GpH7-B3 variant A330_13S/GpL16-k0 (antibody, human IgG1, kappa, Heterodimerized anti-glypican-3 IgG1 antibody; alteration only in the GpH7-B3 H chain; position in EU numbering; also called He Ab) heavy 1: not shown heavy 2: not shown light: DIVMTQSPLSLPVTPGEPASISCQASESLVHSNRNTYLHWYLQKPGQSPQLLIYKVSNRFSGVPDRFSGSGSGTDFTLKISRVEAEDVGVYYCSQNTHVPPTFGQGTKVEIERTVAAPSVFIFPPSDEQLKSGTASVVCLLNNFYPREAKVQWKVDNALQSGNSQESVTEQDSKDSTYSLSSTLTLSKADYEKHKVYACEVTHQGLSSPVTKSFNRGEC	41.3 % of control (control = 100)	60.8 % of control (control = 100)	1.47
GpH7-A5/GpH7-B3 variant A330_12R/GpL16-k0 (antibody, human IgG1, kappa, Heterodimerized anti-glypican-3 IgG1 antibody; alteration only in the GpH7-B3 H chain; position in EU numbering; also called He Ab) heavy 1: not shown heavy 2: not shown light: DIVMTQSPLSLPVTPGEPASISCQASESLVHSNRNTYLHWYLQKPGQSPQLLIYKVSNRFSGVPDRFSGSGSGTDFTLKISRVEAEDVGVYYCSQNTHVPPTFGQGTKVEIERTVAAPSVFIFPPSDEQLKSGTASVVCLLNNFYPREAKVQWKVDNALQSGNSQESVTEQDSKDSTYSLSSTLTLSKADYEKHKVYACEVTHQGLSSPVTKSFNRGEC	84.8 % of control (control = 100)	104 % of control (control = 100)	1.22
GpH7-A5/GpH7-B3 variant A330_09D/GpL16-k0 (antibody, human IgG1, kappa, Heterodimerized anti-glypican-3 IgG1 antibody; alteration only in the GpH7-B3 H chain; position in EU numbering; also called He Ab) heavy 1: not shown heavy 2: not shown light: DIVMTQSPLSLPVTPGEPASISCQASESLVHSNRNTYLHWYLQKPGQSPQLLIYKVSNRFSGVPDRFSGSGSGTDFTLKISRVEAEDVGVYYCSQNTHVPPTFGQGTKVEIERTVAAPSVFIFPPSDEQLKSGTASVVCLLNNFYPREAKVQWKVDNALQSGNSQESVTEQDSKDSTYSLSSTLTLSKADYEKHKVYACEVTHQGLSSPVTKSFNRGEC	55.6 % of control (control = 100)	70.9 % of control (control = 100)	1.27
GpH7-A5/GpH7-B3 variant A330_10E/GpL16-k0 (antibody, human IgG1, kappa, Heterodimerized anti-glypican-3 IgG1 antibody; alteration only in the GpH7-B3 H chain; position in EU numbering; also called He Ab) heavy 1: not shown heavy 2: not shown light: DIVMTQSPLSLPVTPGEPASISCQASESLVHSNRNTYLHWYLQKPGQSPQLLIYKVSNRFSGVPDRFSGSGSGTDFTLKISRVEAEDVGVYYCSQNTHVPPTFGQGTKVEIERTVAAPSVFIFPPSDEQLKSGTASVVCLLNNFYPREAKVQWKVDNALQSGNSQESVTEQDSKDSTYSLSSTLTLSKADYEKHKVYACEVTHQGLSSPVTKSFNRGEC	70.1 % of control (control = 100)	86.6 % of control (control = 100)	1.23
GpH7-A5/GpH7-B3 variant N325_19Q/GpL16-k0 (antibody, human IgG1, kappa, Heterodimerized anti-glypican-3 IgG1 antibody; alteration only in the GpH7-B3 H chain; position in EU numbering; also called He Ab) heavy 1: not shown heavy 2: not shown light: DIVMTQSPLSLPVTPGEPASISCQASESLVHSNRNTYLHWYLQKPGQSPQLLIYKVSNRFSGVPDRFSGSGSGTDFTLKISRVEAEDVGVYYCSQNTHVPPTFGQGTKVEIERTVAAPSVFIFPPSDEQLKSGTASVVCLLNNFYPREAKVQWKVDNALQSGNSQESVTEQDSKDSTYSLSSTLTLSKADYEKHKVYACEVTHQGLSSPVTKSFNRGEC	69.1 % of control (control = 100)	92.1 % of control (control = 100)	1.33

Source: patent US20150344570A1 (published 2015)
